The source of these data is article PMC4449276.

This assay deals with chaperonin-containing TCP-1 (CCT), bovine (bovine) (UniProt Q32L40). The assay can be described thus: native gel or EMSA.

The substance “Hsc70ΔC_(DnaK189–195) (Hsc70ΔC with V189GAERNV195 substituted with DnaK TGNRTI) (from UniProt P19120 1-554) (domain or fragment)” returned a percent of the wild-type CCT binding of 6%.

As for “Hsc70ΔC_(DnaK189–192) (Hsc70ΔC with V189GAE192 changed to DnaK T185GN187) (from UniProt P19120 1-554) (domain or fragment)”, the percent of the wild-type CCT binding stood at 18%.

As for “DnaK_(Hsc70-185–190) (DnaK with T185GNRTI190 exchanged by Hsc70 V189GAERNV195) (from UniProt P0A6Y8 1-638) (natural protein)”, the percent of the CCT binding of Hsc70 was 64%.
